The values that follow are results of earlier work, collected in publication PMC4476730.

Where two headings read alike, the source gives them in different places.

In series [1] the target is CBP KIX (Homo sapiens) (UniProt Q92793).
For series [2] the target is unchanged. This is another data set of the same source.

Sequence of UniProt Q92793 (Q92793 584-669): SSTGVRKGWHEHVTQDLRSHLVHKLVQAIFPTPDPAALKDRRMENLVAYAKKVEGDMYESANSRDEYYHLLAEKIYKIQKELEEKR

For the substance E2A AD2 (from UniProt P15923), the dissociation constant Kd with CBP KIX (Homo sapiens) [1] was 7.2 µM; with CBP KIX (Homo sapiens) [2], 17 µM.

As usually defined, the Kd is the constant that tells how readily two partners part at equilibrium.
